Data published in patent US20160075790A1 (Bristol-Myers Squibb, published 2016).
Changes are numbered by the printed parent chain. Several values for one entry are separate records, joined by “and”; a condition that tells them apart may be missing. Equal values may be shown once.

T1: human CD40L, membrane-bound on cells (human, UniProt P29965 1-261)
T1 sequence: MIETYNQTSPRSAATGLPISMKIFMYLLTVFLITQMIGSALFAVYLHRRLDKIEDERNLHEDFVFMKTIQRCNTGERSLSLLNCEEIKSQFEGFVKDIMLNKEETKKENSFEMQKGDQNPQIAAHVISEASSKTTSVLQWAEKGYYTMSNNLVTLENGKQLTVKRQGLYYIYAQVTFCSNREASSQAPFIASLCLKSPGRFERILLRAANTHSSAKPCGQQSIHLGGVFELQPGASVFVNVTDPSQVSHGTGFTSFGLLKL

T2: human isoleucine zipper-CD40L (IZ-hCD40L) (human, UniProt P29965 113-261)
T2 sequence: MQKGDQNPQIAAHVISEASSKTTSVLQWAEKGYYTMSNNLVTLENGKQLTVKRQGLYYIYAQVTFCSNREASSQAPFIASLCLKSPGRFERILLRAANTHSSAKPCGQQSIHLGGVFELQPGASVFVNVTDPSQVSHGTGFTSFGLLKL

T3: biotinylated IZ-hCD40L (biot-IZ-hCD40L) (human, UniProt P29965 113-261, biotinylated)
T3 construct: biotinylated version of IZ-hCD40L captured on streptavidin chip; also called biotinylated CD40L; not shown: N-terminal isoleucine zipper motif
T3 sequence: T2 sequence

T4: human CD40L monomer triple mutant (T211E, S222Y, H224K, [108-261]) (human, UniProt P29965 108-261)
T4 construct: also called monomeric human CD40L
T4 chain: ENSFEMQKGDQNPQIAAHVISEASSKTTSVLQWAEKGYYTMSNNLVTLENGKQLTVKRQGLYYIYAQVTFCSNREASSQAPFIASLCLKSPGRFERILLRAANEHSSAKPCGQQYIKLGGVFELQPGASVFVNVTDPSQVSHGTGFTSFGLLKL

B1: 2h116-1320-Fc (Fc fusion, not shown: a dimerising Fc or GST)
chain: DIQMTQSPSSLSAYVGDRVTITCRASQPIGPDLLWYQQKPGKAPKLLIYQTSILRSGVPSRFSGSGSETDFTLTISNLQPEDFAKYYCQQYWAFPVTFGQGTKVVIKR
B2: 2h503-1 Fc (Fc fusion, not shown: a dimerising Fc or GST)
chain: DIQMTQSPSSLSASVGDRVTITCRASHHIQRYLSWYQQKPGKAPKLLILWGSQLQSGVPSRFSGSGSGTDFTLTISSLQPEDFATYYCGQWWAPPQTFGQGTKVEIKR
B3: 2h572-6 Fc (Fc fusion, not shown: a dimerising Fc or GST)
chain: EVQLLESGGGLVQPGGSLRLSCAASGFTFNWQLMGWVRQAPGKGLEWVSGIEGPGDVTYYADSVKGRFTISRDNSKNTLYLQMNSLRAEDTAVYYCVKVGKESNSDYRGQGTLVTVSS
B4: 2h572-633 Fc (Fc fusion, not shown: a dimerising Fc or GST)
chain: B3 chain with Q32E, V37A, E102D, S103A, N104K
B5: 2h572-634 Fc (Fc fusion, not shown: a dimerising Fc or GST)
chain: B3 chain with Q32E, V37A, E102D, N104R
B6: 2h572-635 Fc (Fc fusion, not shown: a dimerising Fc or GST)
chain: B3 chain with Q32E, V37A, E102D, N104K
B7: 2h572-619-Ctshort Fc (Fc fusion, not shown: a dimerising Fc or GST)
chain: B3 chain with E102D, N104R
B8: 2h572-619-N297Qshort Fc (Fc fusion, not shown: a dimerising Fc or GST)
chain: B3 chain with E102D, N104R
B9: 2h572-619-N297Qlong Fc (Fc fusion, not shown: a dimerising Fc or GST)
chain: B3 chain with E102D, N104R
B10: 2h572-608-N297Qshort Fc (Fc fusion, not shown: a dimerising Fc or GST)
chain: B3 chain with Q32E, V37A
B11: 2h572-633-CT-Fc SP5 (Fc fusion, not shown: a dimerising Fc or GST)
chain: B3 chain with Q32E, V37A, E102D, S103A, N104K
B12: 2h719-2 Fc (Fc fusion, not shown: a dimerising Fc or GST)
chain: EVQLLESGGGLVQPGGSLRLSCAASGFTFKRYEMMWVRQAPGKGLEWVSSISSDGSFTYYADSVKGRFTISRDNSKNTLYLQMNSLRAEDTAVYYCAEPFTEFDYWGHGTLVTVSS
B13: 2h719-202-N297Qshort Fc (Fc fusion, not shown: a dimerising Fc or GST)
chain: B12 chain with R31K
B14: BMS2h-572-633 (other)
VH: B3 chain with Q32E, V37A, E102D, S103A, N104K
notes: VH dAb, monovalent
B15: 2h572-635-CT Long Fc (Fc fusion)
chain: B3 chain with Q32E, V37A, E102D, N104K
notes: not shown: linker and CT Long Fc (CT-L2)
B16: 2h572-6-CT Long Fc (Fc fusion)
chain: B3 chain
notes: as for B15
B17: 2h572-608-CT Long Fc (Fc fusion)
chain: B3 chain with Q32E, V37A
notes: as for B15
B18: 2h572-614-CT Long Fc (Fc fusion)
chain: B3 chain with E102D, S103A, N104K
notes: as for B15
B19: 2h572-619-Ctlong Fc (Fc fusion)
chain: B3 chain with E102D, N104R
notes: as for B15
B20: 2h572-633-CT Long Fc (Fc fusion)
chain: B3 chain with Q32E, V37A, E102D, S103A, N104K
notes: as for B15
B21: 2h572-634-CT Long Fc (Fc fusion)
chain: B3 chain with Q32E, V37A, E102D, N104R
notes: as for B15

Each molecule was assayed against T1, human CD40L, membrane-bound on cells (assay: cell-based or functional assay).

| Molecule | CHO-hCD40L-driven DC Activation IL-12 EC50 | CHO-hCD40L-driven Human B Cell Proliferation EC50 | T-B cell MLR EC50 | T-B cell MLR IL-6 EC50 | CHO-hCD40L-driven DC Activation IL-6 EC50 | CHO-hCD40L-driven DC Activation TNF EC50 |
| --- | --- | --- | --- | --- | --- | --- |
| B1 | 14 nM | > 130 nM | 244 nM | – | – | – |
| B2 | 2.8 nM | 60 nM | 45 nM | – | – | – |
| B3 | 0.22 nM | 3 nM | 1.9 nM | – | – | – |
| B4 | 0.34 nM | 3 nM | 0.15 nM | 0.11 nM | – | – |
| B5 | 0.42 nM | 3.5 nM | 0.23 nM | 0.19 nM | – | – |
| B6 | 0.445 nM | 2.5 nM | 0.16 nM | 0.11 nM | – | – |
| B7 | 1.8 nM | 2 nM | 0.4 nM | 0.3 nM | – | – |
| B8 | 1.2 nM | 1 nM | 0.226 nM and 0.216 nM | 0.1 nM | – | – |
| B9 | 1.1 nM | 2 nM | 0.48 nM and 0.474 nM | 0.22 nM and 0.11 nM | – | – |
| B10 | 0.93 nM | 2 nM | – | – | – | – |
| B11 | 2.3 nM | 1 nM | 0.161 nM | 0.13 nM | 1.5 nM | 2.9 nM |
| B12 | 0.13 nM | 0.7 nM | 6 nM | – | – | – |
| B13 | 0.66 nM | 1.7 nM | – | – | – | – |

Each molecule was assayed against human isoleucine zipper-CD40L (IZ-hCD40L) (human) (UniProt P29965) (assay: cell-based or functional assay).

| Molecule | hIZCD40L-driven Human B Cell Proliferation EC50 |
| --- | --- |
| B1 | 13 nM |
| B2 | 4 nM |
| B3 | 0.6 nM |
| B4 | 3.5 nM |
| B5 | 3 nM |
| B6 | 2 nM |
| B7 | 1.5 nM |
| B8 | 0.9 nM |
| B9 | 0.98 nM |
| B10 | 1 nM |
| B11 | 5 nM |
| B12 | 1 nM |
| B13 | 1.8 nM |

What follows are molecules tested against mouse CD40L (mouse) (UniProt P27548) (assay: cell-based or functional assay).
Sequence of mouse CD40L (mouse) (P27548 112-260 limits assumed): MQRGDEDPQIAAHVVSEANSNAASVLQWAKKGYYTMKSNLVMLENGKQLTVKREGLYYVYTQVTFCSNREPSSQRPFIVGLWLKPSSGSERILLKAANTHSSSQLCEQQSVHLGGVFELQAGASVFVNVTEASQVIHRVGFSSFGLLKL

| Molecule | CHO-CD40L B cell Assay EC50 | CHO-CD40L DC Assay IL-6 EC50 | Trimer B cell Assay EC50 |
| --- | --- | --- | --- |
| MR-1 (antibody) | 0.6 nM | 0.6 nM | 1.7 nM |

Each molecule was assayed against T2, human isoleucine zipper-CD40L … (assay: cell-based or functional assay).

| Molecule | hIZCD40L-driven Human B Cell Proliferation EC50 |
| --- | --- |
| B14 | 20 nM |

Target: T1, human CD40L, membrane-bound on cells
Assay: cell-based or functional assay
Remark: another data set of the same source

| Molecule | CHO-hCD40L-driven DC Activation IL-12 EC50 |
| --- | --- |
| B14 | 53 nM |

Target: T2, human isoleucine zipper-CD40L …
Assay: cell-based or functional assay
Remark: another data set of the same source

| Molecule | hIZCD40L-driven Human B Cell Proliferation EC50 |
| --- | --- |
| B15 | 3 nM |
| B16 | 1 nM |
| B17 | 2 nM |
| B18 | 2 nM |
| B19 | 1.6 nM |
| B20 | 3 nM |
| B21 | 2 nM |

Target: T1, human CD40L, membrane-bound on cells
Assay: cell-based or functional assay
Remark: another data set of the same source

| Molecule | CHO-hCD40L-driven DC Activation IL-12 EC50 | CHO-hCD40L-driven Human B Cell Proliferation EC50 | T-B cell MLR EC50 | T-B cell MLR IL-6 EC50 | CHO-hCD40L-driven DC Activation IL-6 EC50 | CHO-hCD40L-driven DC Activation IL-23 EC50 | CHO-hCD40L-driven DC Activation TNF EC50 |
| --- | --- | --- | --- | --- | --- | --- | --- |
| B15 | 1.6 nM | 2 nM | 0.149 nM | 0.13 nM | – | – | – |
| B16 | 3 nM | 6 nM | 13.6 nM | 8.1 nM | – | – | – |
| B17 | 1.6 nM | 2 nM | 0.468 nM | 0.38 nM | – | – | – |
| B18 | 1.4 nM | 2 nM | 0.283 nM | 0.25 nM | – | – | – |
| B19 | 1.4 nM | 2 nM | 0.72 nM | 0.43 nM | 1.5 nM | 1.5 nM | 2 nM |
| B20 | 1.9 nM | 1 nM | 0.174 nM | 0.13 nM | 1.3 nM | 1.2 nM | 1.7 nM |
| B21 | 1.5 nM | 1 nM | 0.162 nM | 0.13 nM | – | – | – |

These molecules were tested against T3, biotinylated IZ-hCD40L (biot-IZ-hCD40L) (assay: SPR (Biacore), 25 C, 1:1 Langmuir; monovalent dAb).
From the text: The SPR experiments utilized a hCD40L construct containing an N-terminal isoleucine zipper motif (IZ-hCD40L) which facilitates the specific assembly of the CD40L molecule into the native trimeric form.

| Molecule | Kd | koff | kon |
| --- | --- | --- | --- |
| B14 | 7.8 nM | 0.0081 s⁻¹ | 1e+06 M⁻¹ s⁻¹ |

Target: T4, human CD40L monomer triple mutant …
Assay: SPR; dAb-CT-long captured on anti-human IgG Fc surface, CD40L monomer as analyte

| Molecule | binding result |
| --- | --- |
| B15 | no binding |
| B16 | no binding |
| B17 | no binding |
| B18 | no binding |
| B19 | no binding |
| B20 | no binding |
| B21 | no binding |
